The results in this text go back to patent CN117586402A (HEFEI TIANGANG IMMUNOLOGY PHARMACEUTICAL CO LTD, dated 2024).

The target of the test is T1, NKp80 on human primary T cells and NK cells (人PBMC中CD3+ T细胞和CD56+ NK细胞) (人 (human), UniProt Q9NZS2 1-231).
T1 construct: whole, on cells; also called 人原代T细胞和NK细胞
T1 sequence (looked up): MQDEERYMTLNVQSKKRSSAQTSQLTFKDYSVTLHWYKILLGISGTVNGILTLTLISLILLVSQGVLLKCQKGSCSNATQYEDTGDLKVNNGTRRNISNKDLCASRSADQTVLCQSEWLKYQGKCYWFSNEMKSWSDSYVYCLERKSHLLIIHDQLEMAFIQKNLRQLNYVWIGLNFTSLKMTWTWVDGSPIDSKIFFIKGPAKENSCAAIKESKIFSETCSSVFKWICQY
Nature of the test: flow cytometry on human PBMC, CD3+ cells. (In general: Flow cytometry measures light scatter and fluorescence of single cells or particles in a stream.)

B1: 嵌合NKp80抗体(53G7) (antibody, human IgG1, V domains shown)
VH: EVQLQQSGPELVNPGASVKISCKTSGYTFTDYYMNWVKQSHGKSLEWIGDIHPNNGGTSYNQKFKGKATLTVDKSSSTAYMELRSLTSEDSAVYYCARDYGGTYTNWAQNYFDYWGQGTTLTVSS
VL: DIVQTQSPASLAVSLGQRATISCRASQSVSTPSYSYMHWYQQKPGQPPKLLIKYASNLESGVPARFSGSGSGTDFTLNIHPVEEEDTATYYCQHSWEIPWTFGGGTKLEIKA
notes: also called 53G7抗体; 抗人NKp80抗体53G7
For the molecule B1, the binding result is recorded as “binds”.
